Results: patent US9926377B2, “Anti-GPC3 antibodies and immunoconjugates” (GENENTECH, INC., priority 2014, dated 2018)

How the values were obtained:
GPC3 [1] = biological target: T1, GPC3 (Homo sapiens, UniProt P51654); test: Binding to GPC3-expressing cells by FACS; set-up: endogenous in cells
Text: Positive clones were expanded and re-screened for binding to huGPC3, cynoGPC3, and HepG2 cells by ELISA, FACS, and immunohistochemistry (IHC). Thirteen antibodies were selected and purified, including antibodies 7H1 and 4G7. The heavy and light chain variable region sequences of antibody 7H1 are shown in SEQ ID NOs: 2 and 3, respectively. The heavy and light chain variable region sequences of antibody 4G7 are shown in SEQ ID NOs: 26 and 27, respectively.
Antibody 7H1 also detects human, cynomolgus monkey, rat, and mouse GPC3 by Western blot.
Target sequence in this assay (P51654 25-554): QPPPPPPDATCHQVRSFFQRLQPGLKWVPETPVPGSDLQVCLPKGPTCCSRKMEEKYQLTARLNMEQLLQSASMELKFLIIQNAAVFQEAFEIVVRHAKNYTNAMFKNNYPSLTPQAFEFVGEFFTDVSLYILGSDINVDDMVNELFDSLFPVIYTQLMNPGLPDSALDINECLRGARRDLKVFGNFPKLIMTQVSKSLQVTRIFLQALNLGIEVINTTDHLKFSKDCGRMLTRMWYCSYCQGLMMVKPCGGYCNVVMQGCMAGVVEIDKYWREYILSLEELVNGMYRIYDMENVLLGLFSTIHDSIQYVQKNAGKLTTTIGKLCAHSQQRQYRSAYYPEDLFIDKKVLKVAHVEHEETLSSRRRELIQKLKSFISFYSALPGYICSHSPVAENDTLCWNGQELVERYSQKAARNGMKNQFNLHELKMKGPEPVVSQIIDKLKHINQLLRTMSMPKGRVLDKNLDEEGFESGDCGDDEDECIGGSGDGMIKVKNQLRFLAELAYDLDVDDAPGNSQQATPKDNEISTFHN

human GPC3 = biological target: T2, human GPC3 (Homo sapiens, UniProt P51654); test: FACS binding to human GPC3 fragments expressed on 293S cells; details: C-terminal fragment, amino acids 359-560 of human GPC3, on 293S cells
T2 construct: C-terminal glycophosphatidylinositol anchor (GPI link) (C); expressed in transfected cells; host or cells: 293S cells, transient
T2 sequence (P51654 359-560): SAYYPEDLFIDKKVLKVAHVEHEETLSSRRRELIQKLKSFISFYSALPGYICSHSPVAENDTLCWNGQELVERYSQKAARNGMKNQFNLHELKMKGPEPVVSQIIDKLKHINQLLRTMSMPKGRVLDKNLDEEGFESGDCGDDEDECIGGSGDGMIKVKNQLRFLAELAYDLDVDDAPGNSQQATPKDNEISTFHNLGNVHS
Text: (§1) C-terminal truncation constructs of human GPC3 were made to further refine the epitopes for antibodies 7H1 and 4G7. […] The three C-terminal truncations each comprised the GPC N-terminal signal sequence (SS) and C-terminal glycophosphatidylinositol anchor (GPI link). […] See FIG. 7 (Santa Cruz Biotechnology antibody 1G12, which was raised to amino acids 511-580 of human GPC3, was used as a positive control for C-terminal fragment binding). Antibody 7H1 was reformatted as a chimeric antibody with human A118C cysteine-engineered IgG1 and Igκ constant regions (SEQ ID NOs: 42 and 43).

biotinylated GPC3 = biotinylated GPC3 (Homo sapiens, UniProt P51654); test: Epitope binning competition assay (Octet RED384); assay type: binding; details: 7H1 or 4G7 as first saturating antibody 10 μg/ml; competing antibodies 5 μg/ml
Description: Epitope binning of anti-GPC3 antibodies was performed using a competition assay. Using the Octet RED384 instrument (ForteBio), biotinylated GPC3 was captured onto Streptavidin biosensors at 10 μg/ml for 600 seconds. Binding of the first antibody to saturation was achieved by adding 10 μg/ml for 600 seconds. The same biosensors were dipped into the competing antibodies at 5 μg/ml and binding was measured for 600 seconds. […] Antibody 7H1 was used as the first saturating antibody. A subsequent experiment was performed using antibody 4G7 as the first saturating antibody.

GPC3 [2] = biological target: T1, GPC3; test: FACS binding to human GPC3 fragments expressed on 293S cells; set-up: C-terminal glycophosphatidylinositol anchor (GPI link) (C); expressed in transfected cells; host or cells: 293S cells, transient; details: N-terminal fragment, amino acids 25 to 358 of human GPC3, on 293S cells
Text: as §1
Target sequence in this assay (P51654 25-358): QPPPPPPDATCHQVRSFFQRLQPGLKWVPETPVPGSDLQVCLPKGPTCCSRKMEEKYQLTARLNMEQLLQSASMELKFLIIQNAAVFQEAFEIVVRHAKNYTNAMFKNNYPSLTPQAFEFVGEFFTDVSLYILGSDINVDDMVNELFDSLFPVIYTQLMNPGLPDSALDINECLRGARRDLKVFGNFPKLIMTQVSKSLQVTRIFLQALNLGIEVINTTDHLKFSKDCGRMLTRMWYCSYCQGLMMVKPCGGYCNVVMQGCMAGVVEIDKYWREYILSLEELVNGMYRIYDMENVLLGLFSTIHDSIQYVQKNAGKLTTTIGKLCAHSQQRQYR

Sequence of biotinylated GPC3 (P51654 25-554): as the sequence (P51654 25-554) above

- Reactivity by FACS (GPC3 [1]; 293S cells expressing GPC3): react strongly
- Reactivity by FACS (GPC3 [1]; HepG2 X1 cells): react strongly
- Binding by FACS (human GPC3): did not show significant binding
- Epitope bin (biotinylated GPC3): different epitope bins
- Binding by FACS (GPC3 [2]): did not show significant binding
B1: 4G7: anti-GPC3 monoclonal antibody; heavy and light chain variable regions SEQ ID NOs: 26 and 27 (antibody, V domains shown)
VH: EVQLQQSGTVLARPGASVKMSCKASGYTFTSYWVHWVKQRPGQGLEWIGAIYPGNIDASYNQKFKGKAKLTAVTSTSTAYMELSSLTNEDSAVYYCSYDYDAWFVYWGQGTLVTVSA
VL: DIQMTQSHKFMSTSVGDRVSITCKASQDVSTAVAWYQQKPGQSPTLLIYSASYRYTGVPDRFTGSGSGTDFTFTISSVQAEDLAVYYCQQHYFTPRTFGGGTKLELK
